Measured values published in PMC11833248, “Evolutionary and Functional Analysis of Monoamine Oxidase F: A Novel Member of the Monoamine Oxidase Gene Family” (Genome Biology and Evolution, 2025).

B1: Human MAOA (Homo sapiens) (protein)
chain: MENQEKASIAGHMFDVVVIGGGISGLSAAKLLTEYGVSVLVLEARDRVGGRTYTIRNEHVDYVDVGGAYVGPTQNRILRLSKELGIETYKVNVSERLVQYVKGKTYPFRGAFPPVWNPIAYLDYNNLWRTIDNMGKEIPTDAPWEAQHADKWDKMTMKELIDKICWTKTARRFAYLFVNINVTSEPHEVSALWFLWYVKQCGGTTRIFSVTNGGQERKFVGGSGQVSERIMDLLGDQVKLNHPVTHVDQSSDNIIIETLNHEHYECKYVINAIPPTLTAKIHFRPELPAERNQLIQRLPMGAVIKCMMYYKEAFWKKKDYCGCMIIEDEDAPISITLDDTKPDGSLPAIMGFILARKADRLAKLHKEIRKKKICELYAKVLGSQEALHPVHYEEKNWCEEQYSGGCYTAYFPPGIMTQYGRVIRQPVGRIFFAGTETATKWSGYMEGAVEAGERAAREVLNGLGKVTEKDIWVQEPESKDVPAVEITHTFWERNLPSVSGLLKIIGFSTSVTALGFVLYKYKLLPRS
notes: recombinant, overexpressed and purified by published protocols
B2: Human MAOB (Homo sapiens) (protein)
chain: SNKCDVVVVGGGISGMAAAKLLHDSGLNVVVLEARDRVGGRTYTLRNQKVKYVDLGGSYVGPTQNRILRLAKELGLETYKVNEVERLIHHVKGKSYPFRGPFPPVWNPITYLDHNNFWRTMDDMGREIPSDAPWKAPLAEEWDNMTMKELLDKLCWTESAKQLATLFVNLCVTAETHEVSALWFLWYVKQCGGTTRIISTTNGGQERKFVGGSGQVSERIMDLLGDRVKLERPVIYIDQTRENVLVETLNHEMYEAKYVISAIPPTLGMKIHFNPPLPMMRNQMITRVPLGSVIKCIVYYKEPFWRKKDYCGTMIIDGEEAPVAYTLDDTKPEGNYAAIMGFILAHKARKLARLTKEERLKKLCELYAKVLGSLEALEPVHYEEKNWCEEQYSGGCYTTYFPPGILTQYGRVLRQPVDRIYFAGTETATHWSGYMEGAVEAGERAAREILHAMGKIPEDEIWQSEPESVDVPAQPITTTFLERHLPSVPGLLRLIGLTTIFSATALGFLAHKRGLLVRV
notes: as for B1

Key:
Test in all cases: purified protein
Conditions in all cases: 25 °C, 50 mM Hepes/NaOH pH 7.5, 0.5% v/v reduced Triton X-100
purified protein [1] = substrate: NCCc1c[nH]c2ccc(O)cc12
purified protein [2] = substrate: NCCC(=O)c1ccccc1N; assay type: biochemical, Homo sapiens
purified protein [3] = substrate: NCCc1ccc(O)cc1; assay type: biochemical, Homo sapiens
purified protein [4] = substrate: NCCc1ccccc1; assay type: biochemical, Homo sapiens
purified protein [5] = substrate: NCc1ccccc1

Row | Protein | Km (purified protein [1]) [µM] | kcat (purified protein [1]) [s⁻¹] | kcat/Km (purified protein [1]) [M⁻¹ s⁻¹] | Km (purified protein [2]) [µM] | kcat (purified protein [2]) [s⁻¹] | kcat/Km (purified protein [2]) [M⁻¹ s⁻¹] | Km (purified protein [3]) [µM] | kcat (purified protein [3]) [s⁻¹] | kcat/Km (purified protein [3]) [M⁻¹ s⁻¹] | Km (purified protein [4]) [µM] | kcat (purified protein [4]) [s⁻¹] | kcat/Km (purified protein [4]) [M⁻¹ s⁻¹] | Km (purified protein [5]) [µM] | kcat (purified protein [5]) [s⁻¹] | kcat/Km (purified protein [5]) [M⁻¹ s⁻¹]
1 | B1 | 1800 ± 100 | 3.777 ± 0.075 | 2100 | 200 ± 20 | 1.39 ± 0.0383 | 6920 | 100 ± 20 | 1.53 ± 0.07 | 15300 | 400 ± 100 | 0.803 ± 0.055 | 2010 | – | – | –
2 | B2 | – | – | – | 52 ± 7 | 0.485 ± 0.0167 | 9300 | 400 ± 110 | 0.742 ± 0.0833 | 1850 | 11 ± 1 | 0.758 ± 0.0167 | 68900 | 350 ± 100 | 0.738 ± 0.0833 | 2100
